According to the supplement of paper PMC10126150:
± gives the standard deviation of the averaged measurements.

tested on: ATP; assay: switch fluorescence ratio, 500 uM ATP over buffer (Cy3 cluster intensity, sum of 5 cycles each) (fold (ratio)); higher = stronger signal-on switching upon ATP binding; sequences stand for … in TCGTCGGCAGCGTCAGATGTGTATAAGAGACAGTTTTTTTTTTTTTTTTTTTTTTTTT…TC; settings: aptamer strand: ATP DNA aptamer (quencher-CACCTGGGGGAGTATTGCGGAGGAAGG + anchor), 100 nM annealed; ATP concentration: 500 uM
Summary of the method: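 Clusters with intensities outside 100-1000 RFU were excluded. The remaining Cy3-labelled switching-strand clusters on a modified Illumina MiSeq flow-cell had been annealed to 100 nM quencher-labelled ATP aptamer and imaged in selection buffer, then after 15 min with 500 uM ATP at 22 °C, for five cycles separated by NaOH stripping and re-annealing. The fluorescence ratio, averaged per switch-domain sequence, is each cluster's summed target-cycle Cy3 intensity over its summed buffer-cycle Cy3 intensity.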
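Also: ATP exposure 15 min at 22 °C before imaging.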

| Sequence | switch fluorescence ratio |
| --- | --- |
| GGTGAGAAGT | 1.01 ± 0.013 |
| GTTTATTTCT | 1.02 ± 0.049 |
| ATTTGACTCT | 0.986 ± 0.021 |
| GGGGTGGGAC | 1.044 ± 0.006 |
| CCTTTAGGGT | 0.9997 ± 0.0014 |
| TGAGATAAAG | 0.967 ± 0.001 |
| TAGGGGAGC | 1.01 ± 0.045 |
| TTTGATAGGA | 0.975 ± 0.02 |
| AAGGGGTTGG | 1.01 ± 0.019 |
| TTTTATGTTG | 1.01 ± 0.04 |
| TTGATCGGGG | 1.01 ± 0.028 |
| ATTAGGGTTA | 0.9928 ± 0.0088 |
| GCTACGCGCT | 1.36 ± 0.021 |
| TTGGGCGGGA | 0.968 ± 0.099 |
| ATTTACCGAA | 1.05 ± 0.019 |
| GTGGTGGGGT | 1.01 ± 0.028 |
| TCAGTAATTT | 1.03 ± 0.032 |
| TTTCAAATTG | 0.973 ± 0.028 |
| GAATTGAGCA | 0.996 ± 0.019 |
| CATATTTCGC | 1.03 ± 0.029 |
| GATTCGGTTG | 0.9897 ± 0.0011 |
| TCTTCAAGTT | 0.988 ± 0.031 |
| GAATAACTAG | 0.9776 ± 0.0088 |
| TTGATTATCC | 0.99 ± 0.019 |
| CAGGATGTAT | 0.9852 ± 0.0029 |

| Sequence | switch fluorescence ratio |
| --- | --- |
| TCGAGATCCG | 0.996 ± 0.018 |
| GAGAGTATAT | 1.01 ± 0.012 |
| ATATTCGATT | 0.999 ± 0.027 |
| TTTTTTAATT | 1.03 ± 0.071 |
| GTTTGGGTGT | 1 ± 0.016 |
| TGGTCGGCTG | 1.007 ± 0.0044 |
| GCGATTTAGA | 0.994 ± 0.016 |
| TCGAAATATT | 1.55 ± 0.81 |
| CAGGCCTCTT | 0.9943 ± 0.0035 |
| GGGCAACGAC | 1.07 ± 0.0093 |
| ACTTTTGACT | 0.982 ± 0.022 |
| TCGGAGTCTC | 1.127 ± 0.0029 |
| GACTTTGGGG | 1 ± 0.013 |
| GATATTAGGC | 0.9858 ± 0.009 |
| CCTCGGGGGG | 1.06 ± 0.1 |
| TCGGGTTTTT | 1 ± 0.03 |
| CCTTGCGGGA | 1.06 ± 0.011 |
| AATGGGTTGA | 0.9743 ± 0.0053 |
| TGTTTTGGGT | 0.985 ± 0.039 |
| TTAAAAAGGA | 0.986 ± 0.016 |
| TTAGAAATTT | 1.01 ± 0.02 |
| GTTGATAAGT | 1.01 ± 0.0084 |
| GCTGAGGATA | 0.984 ± 0.013 |
| AGAGGTTATT | 0.9994 ± 0.0069 |
| GCTGCTAATA | 1.039 ± 0.01 |

| Sequence | switch fluorescence ratio |
| --- | --- |
| GAAAAAGCCG | 1.014 ± 0.0078 |
| AATGGGTAC | 1.015 ± 0.0059 |
| AAAGAGGGTT | 1.02 ± 0.019 |
| GAGGGGGTCC | 1.03 ± 0.069 |
| GAAAGTGTGG | 0.971 ± 0.03 |
| GGAGTTAAGT | 0.987 ± 0.043 |
| CGGGGGACTA | 0.985 ± 0.015 |
| CTTGGAGTTT | 1 ± 0.034 |
| GCACACAAAA | 1.05 ± 0.012 |
| TATGGGGTTT | 1.01 ± 0.031 |
| GGTCAGGGTT | 0.954 ± 0.035 |
| AAGGGTTCAT | 1.031 ± 0.0099 |
| GTTCCTCATT | 1.45 ± 0.61 |
| TTGGATCCGG | 0.98 ± 0.039 |
| ACCAGTGCTG | 1 ± 0.04 |
| GAAGGGGCAA | 1.18 ± 0.13 |
| TGGGGGTGAG | 1 ± 0.029 |
| TGACGGTGGG | 0.962 ± 0.023 |
| TATGATTTGC | 1 ± 0.012 |
| TGAGCACGGG | 1.03 ± 0.02 |
| ATGTGGATTT | 0.988 ± 0.023 |
| GGTGGGGTAT | 0.98 ± 0.021 |
| AGGACTTTAG | 0.943 ± 0.091 |
| GCGGACCCTC | 1.03 ± 0.05 |
| GAGAAGAGGC | 1.13 ± 0.023 |

| Sequence | switch fluorescence ratio |
| --- | --- |
| TTATACCGTT | 0.999 ± 0.01 |
| CGTACTCGTA | 1.01 ± 0.019 |
| CAGGGTAGAG | 1 ± 0.043 |
| GCGCTGCATT | 1.06 ± 0.037 |
| AGTTGGTCTA | 1 ± 0.017 |
| ATATTGTCCA | 1.02 ± 0.0039 |
| TGGGGGCGCG | 0.984 ± 0.042 |
| AGTATTGCTC | 1.01 ± 0.024 |
| AGATGGTAGG | 0.986 ± 0.023 |
| TTACAACGTA | 1 ± 0.013 |
| AGCGCGGGGG | 1.002 ± 0.006 |
| TCGGTTAGTA | 0.9883 ± 0.0021 |
| TAGTTACGGT | 1.05 ± 0.064 |
| AATTGTTGGG | 1.01 ± 0.041 |
| ATGTGCTGTT | 0.99802 ± 8.7e-05 |
| ACGGGGTTTG | 0.995 ± 0.018 |
| TGAAGGTCGG | 0.9917 ± 0.0039 |
| GGGATTCGTC | 0.994 ± 0.02 |
| TAAGAAGTCC | 0.977 ± 0.045 |
| AGCTGTGAC | 1.07 ± 0.04 |
| TTTTGGTTTA | 1 ± 0.011 |
| CGCATAGGGT | 1.13 ± 0.012 |
| GAGTATAATA | 0.997 ± 0.025 |
| CTGAAAACTA | 1.02 ± 0.059 |
| GGTAAGGGGG | 0.99 ± 0.031 |
